From patent US20200038505A1

Biological target: EBVgp350/220 wild type (full length, BLLF1, EBV strain B95-8) (Epstein-Barr virus strain B95-8) (UniProt P03200)
Test: cell-based or functional assay

Chain of UniProt P03200 (P03200 whole entry): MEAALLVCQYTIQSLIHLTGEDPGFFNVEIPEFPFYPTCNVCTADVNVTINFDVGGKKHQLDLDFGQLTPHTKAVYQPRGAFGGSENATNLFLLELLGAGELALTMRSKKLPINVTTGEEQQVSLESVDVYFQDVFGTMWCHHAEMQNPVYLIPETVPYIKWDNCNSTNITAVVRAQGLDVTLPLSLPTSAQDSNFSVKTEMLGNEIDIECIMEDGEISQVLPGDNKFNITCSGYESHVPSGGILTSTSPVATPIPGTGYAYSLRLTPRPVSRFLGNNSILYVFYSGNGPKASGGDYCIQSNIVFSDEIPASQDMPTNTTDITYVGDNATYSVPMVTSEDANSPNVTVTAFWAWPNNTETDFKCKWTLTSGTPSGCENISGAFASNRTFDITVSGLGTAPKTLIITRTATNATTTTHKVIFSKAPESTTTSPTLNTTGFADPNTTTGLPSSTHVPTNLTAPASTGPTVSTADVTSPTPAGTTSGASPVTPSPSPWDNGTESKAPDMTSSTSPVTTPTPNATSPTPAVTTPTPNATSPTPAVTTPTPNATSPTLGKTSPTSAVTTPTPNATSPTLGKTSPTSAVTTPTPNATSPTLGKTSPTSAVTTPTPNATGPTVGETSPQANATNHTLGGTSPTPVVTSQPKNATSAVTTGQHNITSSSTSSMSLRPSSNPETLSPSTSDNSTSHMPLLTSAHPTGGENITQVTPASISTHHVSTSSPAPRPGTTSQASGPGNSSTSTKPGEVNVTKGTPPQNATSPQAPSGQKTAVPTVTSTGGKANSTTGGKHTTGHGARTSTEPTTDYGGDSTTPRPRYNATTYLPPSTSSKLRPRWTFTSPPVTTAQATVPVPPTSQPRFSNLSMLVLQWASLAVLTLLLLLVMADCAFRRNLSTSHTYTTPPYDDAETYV

Q: How did the percent fluorescent (EGFP+) Raji cells after infection with EGFP-EBV pre-incubated with the antibody turn out when “monoclonal antibody mAb-2L10 anti-gp350/220” was run?
A: 27%

Q: What about the percent of EGFP+ Raji cells post-infection of the same substance?
A: 25%

Q: With “monoclonal antibody mAb-72A1 anti-gp350/220” as the substance, how does the percent fluorescent (EGFP+) Raji cells after infection with EGFP-EBV pre-incubated with the antibody read?
A: 1%
